Test results published in the supplement of paper PMC7877785.
± gives the uncertainty stated by the source.

Test: self-splicing fitness, log relative to wild type (ln ratio); higher = more splicing; Tetrahymena group I intron in knt gene, E. coli kanamycin selection, DiMSum; sequences stand for … in CUCUCU…GGAGGGAAAAGUUAUCAGGCAUGCACCUGGUAGCUAGUCUUUAAACCAAUAGAUUGCAUCGGUUUAAAAGGCAAGACCGUCAAAUUGCGGGAAAGGGGUCAACAGCCGUUCAGUACCAAGUCUCAGGGGAAACUUUGAGAUGGCCUUGCAAAGGGUAUGGUAAUAAGCUGACGGACAUGGUCCUAACCACGCAGCCAAGUCCUAAGUCAACAGAUCUUCUGUUGAUAUGGAUGCAGUUCACAGACUAAAUGUCGGUCGGGGAAGAUGUAUUCUUCUCAUAAGAUAUAGUCGGACCUCUCCUUAAUGGGAGCUAGCGGAUGAAGUGAUGCAACACUGGAGCCGCUGGGAACUAAUUUGUAUGCGAAAGUAUAUUGAUUAGUUUUGGAGUACUCGUGGUCG
Method in brief: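 A randomised library covering all eight P1ex-region intron nucleotides was built with the intron in the knt kanamycin-resistance gene on pET-22b(+) and held in E. coli BL21(DE3). Cells were grown overnight at 37°C or 30°C on LB agar, with or without 25 μg/mL kanamycin, plus 100 μg/mL carbenicillin, 50 μM IPTG and 0.2% rhamnose, and pooled colonies were amplicon-sequenced on an Illumina HiSeq 2500. DiMSum fitness is the error-weighted combination of wild-type-normalised replicate fold changes, kanamycin versus none.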

Sequence	self-splicing fitness (ln) (30 °C)	self-splicing fitness (ln) (37 °C)
CCAGAGCAAUAUUACGGUGC	-2.81 ± 0.14	-2.28 ± 0.23
CCAGAGCAAUAUUACGUAAA	-2.75 ± 0.2	-1.29 ± 0.3
CCAGAGCAAUAUUACGUAAG	-1.59 ± 0.097	-0.37 ± 0.12
CCAGAGCAAUAUUACGUAUG	-2.22 ± 0.11	-1.77 ± 0.12
CCAGAGCAAUAUUACGUCGC	-3.95 ± 0.32	-2.49 ± 0.29
CCAGAGCAAUAUUACGUCUG	-3.53 ± 0.2	-1.63 ± 0.14
CCAGAGCAAUAUUACGUUGA	-2.69 ± 0.22	-3.35 ± 0.24
CCAUAGCAAUAUUACGAGAU	-3.81 ± 0.35	-2.12 ± 0.21
CCAUAGCAAUAUUACGAUAA	–	-3.15 ± 0.4
CCAUAGCAAUAUUACGAUCU	-3.15 ± 0.34	-2.96 ± 0.44
CCAUAGCAAUAUUACGAUGC	-3.11 ± 0.17	-1.88 ± 0.17
CCAUAGCAAUAUUACGAUUA	-3.12 ± 0.32	-2.54 ± 0.28
CCAUAGCAAUAUUACGCACU	-3.41 ± 0.4	-3.05 ± 0.34
CCAUAGCAAUAUUACGCAUG	-3.37 ± 0.19	-0.732 ± 0.13
CCAUAGCAAUAUUACGCAUU	-3.65 ± 0.26	-2.84 ± 0.36
CCAUAGCAAUAUUACGCUUU	-4.72 ± 0.28	-3.1 ± 0.2
CCAUAGCAAUAUUACGGGAC	–	-2.82 ± 0.28
CCAUAGCAAUAUUACGUAAC	–	-2.7 ± 0.29
CCAUAGCAAUAUUACGUACC	-3.95 ± 0.47	-2.21 ± 0.36
CCAUAGCAAUAUUACGUAUG	-3.88 ± 0.15	-2.19 ± 0.13
CCAUAGCAAUAUUACGUCCU	-2.86 ± 0.23	-2.64 ± 0.48
CCAUAGCAAUAUUACGUGAA	-3.25 ± 0.21	-2.07 ± 0.26
CCAUAGCAAUAUUACGUGUU	-3.47 ± 0.14	-3.36 ± 0.16
CCCAAGCAAUAUUACGAAGG	-3.19 ± 0.17	-2.42 ± 0.17
CCCAAGCAAUAUUACGACUC	-3.56 ± 0.33	-2.1 ± 0.33

Sequence	self-splicing fitness (ln) (30 °C)	self-splicing fitness (ln) (37 °C)
CCCAAGCAAUAUUACGAGCU	-4.17 ± 0.19	-2.44 ± 0.21
CCCAAGCAAUAUUACGAGGU	-3.16 ± 0.091	-2.08 ± 0.086
CCCAAGCAAUAUUACGAGUC	-3.23 ± 0.16	-3.28 ± 0.24
CCCAAGCAAUAUUACGAUCC	–	-2.85 ± 0.35
CCCAAGCAAUAUUACGCCCG	-2.76 ± 0.33	-2.44 ± 0.42
CCCAAGCAAUAUUACGCCUC	-2.93 ± 0.25	-2.93 ± 0.34
CCCAAGCAAUAUUACGCCUU	-3.04 ± 0.16	-2.88 ± 0.21
CCCAAGCAAUAUUACGCGGU	-3.41 ± 0.12	-1.77 ± 0.12
CCCAAGCAAUAUUACGCUAU	-3.85 ± 0.29	-3.13 ± 0.31
CCCAAGCAAUAUUACGCUCU	-3.91 ± 0.26	-2.16 ± 0.18
CCCAAGCAAUAUUACGGACA	-3.25 ± 0.27	-2.07 ± 0.14
CCCAAGCAAUAUUACGGUGU	-2.71 ± 0.089	-1 ± 0.084
CCCAAGCAAUAUUACGUACG	-3.55 ± 0.21	-2.9 ± 0.15
CCCAAGCAAUAUUACGUCAA	-1.84 ± 0.14	-2.3 ± 0.19
CCCAAGCAAUAUUACGUCUC	-2.71 ± 0.15	-2.25 ± 0.26
CCCAAGCAAUAUUACGUGCC	-4.01 ± 0.29	-2.97 ± 0.34
CCCAAGCAAUAUUACGUUCU	-3.36 ± 0.14	-3.5 ± 0.22
CCCCAGCAAUAUUACGAACC	-4.18 ± 0.34	-2.46 ± 0.36
CCCCAGCAAUAUUACGAAGA	-2.91 ± 0.24	-2.52 ± 0.26
CCCCAGCAAUAUUACGAAGU	-3.84 ± 0.18	-3.21 ± 0.2
CCCCAGCAAUAUUACGAGCC	-3.75 ± 0.26	-2.54 ± 0.25
CCCCAGCAAUAUUACGAUAG	-3.16 ± 0.1	-3.25 ± 0.17
CCCCAGCAAUAUUACGAUUG	-3.58 ± 0.11	-2.72 ± 0.14
CCCCAGCAAUAUUACGCAUU	-4.14 ± 0.17	-2.81 ± 0.18
CCCCAGCAAUAUUACGCCAA	-2.64 ± 0.17	-2.7 ± 0.19

Sequence	self-splicing fitness (ln) (30 °C)	self-splicing fitness (ln) (37 °C)
CCCCAGCAAUAUUACGCCGG	-4.29 ± 0.21	-1.88 ± 0.16
CCCCAGCAAUAUUACGCUUG	-3.52 ± 0.17	-3.06 ± 0.2
CCCCAGCAAUAUUACGGACU	-3.61 ± 0.14	-3.13 ± 0.19
CCCCAGCAAUAUUACGGCAU	-3.43 ± 0.14	-2.42 ± 0.14
CCCCAGCAAUAUUACGGGCA	-2.57 ± 0.13	-1.45 ± 0.11
CCCCAGCAAUAUUACGUCUA	-3.09 ± 0.14	-2.84 ± 0.2
CCCCAGCAAUAUUACGUGGC	-4.37 ± 0.14	-2.74 ± 0.12
CCCCAGCAAUAUUACGUUCC	-3.87 ± 0.24	-3.3 ± 0.3
CCCGAGCAAUAUUACGAAGG	–	-2.18 ± 0.23
CCCGAGCAAUAUUACGAAGU	-3.58 ± 0.18	-2.75 ± 0.24
CCCGAGCAAUAUUACGAGCA	-2.24 ± 0.27	-2.04 ± 0.25
CCCGAGCAAUAUUACGAGGA	-2.48 ± 0.17	-0.976 ± 0.11
CCCGAGCAAUAUUACGAGUC	-2.67 ± 0.31	-1.69 ± 0.35
CCCGAGCAAUAUUACGAUAA	-1.81 ± 0.23	-2.73 ± 0.25
CCCGAGCAAUAUUACGAUCA	-2.79 ± 0.28	-2.98 ± 0.33
CCCGAGCAAUAUUACGAUCG	-3.58 ± 0.32	-2.71 ± 0.41
CCCGAGCAAUAUUACGAUGA	-3.45 ± 0.43	-2.4 ± 0.28
CCCGAGCAAUAUUACGAUUC	-4.01 ± 0.3	-2.13 ± 0.18
CCCGAGCAAUAUUACGCACU	-2.78 ± 0.25	-3 ± 0.27
CCCGAGCAAUAUUACGCCCU	–	-2.24 ± 0.33
CCCGAGCAAUAUUACGCCGA	-3.02 ± 0.39	-2.14 ± 0.36
CCCGAGCAAUAUUACGCGGU	-3.37 ± 0.16	-2.7 ± 0.17
CCCGAGCAAUAUUACGGACG	-3.62 ± 0.29	-0.706 ± 0.18
CCCGAGCAAUAUUACGGCCA	-2.88 ± 0.23	-3.57 ± 0.28
CCCGAGCAAUAUUACGGGAU	-3.31 ± 0.23	-2.08 ± 0.21

Sequence	self-splicing fitness (ln) (30 °C)	self-splicing fitness (ln) (37 °C)
CCCGAGCAAUAUUACGGGCC	-3.99 ± 0.27	-2.26 ± 0.26
CCCGAGCAAUAUUACGGGGC	-3.75 ± 0.19	-2.74 ± 0.17
CCCGAGCAAUAUUACGGUAU	-3.43 ± 0.22	-3.01 ± 0.4
CCCGAGCAAUAUUACGUAAC	-3.43 ± 0.23	-3.05 ± 0.28
CCCGAGCAAUAUUACGUACC	-2 ± 0.21	–
CCCGAGCAAUAUUACGUACU	-3.49 ± 0.24	-1.24 ± 0.14
CCCGAGCAAUAUUACGUCAG	-3.49 ± 0.15	-2.51 ± 0.17
CCCGAGCAAUAUUACGUCGA	-4.11 ± 0.39	-3.16 ± 0.25
CCCGAGCAAUAUUACGUCUA	-3.33 ± 0.2	-2.42 ± 0.22
CCCGAGCAAUAUUACGUUAU	-3.87 ± 0.21	-2.62 ± 0.19
CCCUAGCAAUAUUACGAACG	-3 ± 0.21	-2.59 ± 0.29
CCCUAGCAAUAUUACGAAUG	-4.25 ± 0.46	–
CCCUAGCAAUAUUACGAGAG	-3.79 ± 0.3	-2.5 ± 0.23
CCCUAGCAAUAUUACGAGCU	-4.02 ± 0.24	-1.87 ± 0.2
CCCUAGCAAUAUUACGAGGG	-4.35 ± 0.46	-2.09 ± 0.23
CCCUAGCAAUAUUACGAGUC	-3.63 ± 0.21	-2.28 ± 0.27
CCCUAGCAAUAUUACGAUAA	-4.04 ± 0.22	-2.48 ± 0.22
CCCUAGCAAUAUUACGCGAG	-3.61 ± 0.19	-3.25 ± 0.21
CCCUAGCAAUAUUACGCGCG	-3.46 ± 0.16	-3.35 ± 0.27
CCCUAGCAAUAUUACGCUAA	-4.17 ± 0.3	-2.55 ± 0.22
CCCUAGCAAUAUUACGGCAA	-3.66 ± 0.22	-3.15 ± 0.18
CCCUAGCAAUAUUACGGCAG	-3.47 ± 0.22	-2.75 ± 0.22
